Test results as given in the supplement of paper PMC10567573.

B1: GLTSCR2 (parent)
chain: LARRRRRRQARREAEADKPRRLGR
B2: RSAD1 (parent)
chain: YCNFNKYIPRRLEEAAMQKCLVTE

Variants of: B1
Experiment: protein stability index of a GFP-peptide fusion (GPS, HEK-293T) (PSI 1-6); higher = more stable
Conditions: c terminus: a fixed tail appended
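Further: lentivirally expressed fusions sorted by FACS into six bins by GFP to DsRed ratio, PSI derived from sequencing read proportions per bin multiplied by bin number.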

Protein stability index: each site, then its substitutions
R24: K 4.67, L 4.58, M 4.28, N 4.28, P 4.67, Q 4.62, S 4.85, T 4.6, V 4.42, W 3.84, Y 4.8

Variants of: B2
Experiment: as above
Conditions: c terminus: a fixed tail appended

Protein stability index of substitutions, site by site:
I8: G 1.22, M 1.85, F 2.48, R 1.67, W 2.26, V 1.09, E 2.03, T 1.96
T23: Y 2.61, M 2.17, K 2.27, V 3.13
A15: Y 2.61, H 3.35, C 1.83, P 2.85, Q 2.24
C2: E 2.98, M 2.31, D 2.88, G 2.48, F 2.35, P 1.44, N 2.84, R 2.42
N5: V 1.19, P 2.07, M 2.72, L 3.04, G 2.91, K 2.28
Y7: K 2.42, F 3.98, N 2.58, V 3.01, T 2.22, A 2.11, M 1.79
L12: P 2.95, C 1.96, H 2.52, F 2.15, I 2.98, R 2.41, T 2, Y 3.24
E14: Y 1.33, G 3, P 2.92, V 3.05, A 3.07, I 2.32, M 3.14, K 1.58
L21: A 2.09, K 2.67, F 2.97, N 2.19, Q 3.19, P 2.17, M 1.42
Q18: V 3.15, N 3.44, H 1.88, K 2.15, C 2.41
P9: A 2.11, L 2.28, M 1.4, Y 2.48, I 2.85, N 1.82
V22: W 2.23, T 3.32, D 1.76, L 1.3, I 2.77, Q 2.5, S 2.38, A 2.25
N3: R 1.66, P 2.03, E 1.99, V 1.85, C 1.95, W 1.96
A16: M 1.57, I 3.03, D 2.54
K6: F 3.19, L 2.58, C 1.43, Q 1.5, R 1.7, P 2.21, V 3.4, T 2.79, I 2.52, H 3.4, G 3.22
C20: W 2.77, E 2.02, N 2.44, T 1.89, G 2.9, Q 2, L 2.91, P 1.95, D 2.56, M 2.27
F4: S 2.8, E 2.07, I 1.67, T 2.61, L 2.08, C 1.94, M 2.35, N 2.49, Q 2.76
R11: E 2.17, V 2.41, S 1.44, H 2.96
M17: Q 2.57, P 1.92, C 1.72, D 3.71, W 2.1, T 3.45, H 3.23, F 1.67
E13: Q 1.93, M 2.56, Y 1.88
Y1: N 2.58, A 2.31, G 1.89, S 2.46, F 1.68, M 2.32, I 2.76, D 2.47
R10: F 2.22, M 2.53, L 2.63, E 1.26
K19: G 2.12, W 2.37, P 2.76, T 2.01, C 2.08, M 4.09, D 1.68
E24: S 1.64, L 3.31, H 2.08
